Where no end group is shown, it is not given here.

The experiment has as its target T1, antigenic peptide REEHIEGGHSNTDRPSR (human immunogenic peptide, residues 365-381 of IL4I1) coupled to BSA (human, also: coupled through Ahx spacer and Cys to BSA carrier, end not given here).
T1 peptide: REEHIEGGHSNTDRPSR
Briefly: ELISA screen against the antigenic peptide coupled to BSA. Background: An ELISA detects its analyte on a solid surface through an enzyme-linked reagent.

B1: anti-IL4I1 antibody D-5 IgG/λ (rabbit monoclonal, clone D-5, hybridoma CNCM I-5355) (antibody, V domains shown)
VH: QQQLVESGGDLVKPEGSLTLTCTASGFSLSAGYFICWIRQAPGKGLEWIGSVFSGSSGTTYYASWAKGRFTISKTSSTTVTLQMTSLTAADTAIYFCARGGVLGGRVAYDNSFDHWGPGTLVTVSS
VL: ELVLTQSPSVSAALGASAKLTCTLSSAHSTYTIEWYQQQPGESPRYLMQLKSDGSYTKGTGVPDRFSGSSSGADRYLIIFSVQADDEADYYCGANYSSGYVFGGGTQLTVT
notes: Rabbit IgG/lambda from a hybridoma; It was used as hybridoma supernatant (clone D) or as purified IgG (subclone D-5); also called IgG D-5; AbD-5
In the case of B1, the binding result is “binds”.

B2: anti-IL4I1 antibody A-3 IgG/λ (rabbit monoclonal, clone A-3) (antibody, V domains shown)
VH: QSLEESGGDLVKPEGSLTLTCTASGFSLSAGYFMCWVRQAPGKGLEWIGSIFSGSSGSTYYASWAKGRFTISKTSSTTVTLQMTSLTAADTAIYFCARGGVVDGRVAYDNSFDHWGPGTLVTVSS
VL: ELVLTQSPSVSAALGASAKLTCTLSSAHSTYTIDWYQQQPGESPRYLMQLKSDGTYTKGTGVPDRFSGSSSGADRYLIIPSVQADDEAGYYCGANYSGGYVFGGGTQLTVTR
notes: Rabbit IgG/lambda from a hybridoma; It was used as hybridoma supernatant (clone A) or as purified IgG (subclone A-3); also called IgG A-3; AbA-3
Consider B2, for which the binding result is “binds”.

Values taken from US20200166512A1 (CENTRE NATIONAL DE LA RECHERCHE SCIENTIFIQUE, published 2020).
